B2: OX40-CRD-Avi-his (receptor)
chain: LHCVGDTYPSNDRCCHECRPGNGMVSRCSRSQNTVCRPCGPGFYNDVVSSKPCKPCTWCNLRSGSERKQLCTATQDTVCRCRAGTQPLDSYKPGVDCAPCPPGHFSPGDNQACKPWTNCTLAGKHTLQPASNSSDAICEDRDGLNDIFEAQKIEWHEHHHHHH
notes: limits of the construct not described

The target of the assay “OX40-CRD-Avi-his” is B2. Description: SPR, antibody captured by anti-human IgG Fc, hsOX40_CRD_Avi_His injected. The procedure: (§1) Dilution series of hsOX40_CRD_Avi_His (SEQ ID NO: 159) were then injected.
On the technique in general: Surface plasmon resonance follows binding to a sensor surface in real time, without labels.

The next assay deals with rat OX40-Fc (rat). Description: ELISA on coated rat OX40-Fc. The method, then:
(§2) These constructs were expressed in HEK293-EBNA1 cells and purified using protein A. Then, human and rat OX40-Fc were tested in ELISA and Biacore to determine antibody cross-reactivity. For the ELISA, 96 well-microtiter plates (Costar USA, distributor VWR AG, Nyon, Switzerland) were coated with 100 μl of recombinant human or rat OX40-Fc at 2 μg/ml in PBS. Plates were incubated overnight at 4° C. and were then blocked with PBS 2% BSA (Bovine Serum Albumine, PAA Laboratories, Pasching, Austria) at room temperature (RT) for one hour. The blocking solution was removed and the purified antibodies were added at 10 μg/ml in PBS 2% BSA. The plates were incubated at RT for 1 hour, then washed 5 times with PBS 0.01% Tween-20 (Sigma-Aldrich Chemie GmbH, Buchs, Switzerland). […] Plates were incubated for 1 hour at RT, washed 5 times with PBS 0.01% Tween-20 and the TMB substrate (Bio-rad Laboratories AG, Reinach, Switzerland) was added to the plates and the reaction stopped after 5 minutes by adding H₂SO₄. Absorbance was then read at 450 nm by a microplate reader (Biotek, USA; distributor: WITTEC AG, Littau, Switzerland). Biacore experiments were specifically conducted with Hexa-hzG3V9 and Hexa-hz1D10v1 which are dAb-Fc fusion proteins. […] Binding of human and cyno OX40-Fc molecules was determined by successively injecting these proteins on the 4 flow-paths (flow-path 1 and 3 being used as references) at a concentration of 200 nM and a flow rate of 30 uL/min for 240 seconds. Regeneration between the two injections was done using 3M MgCl2, at 30 uL/min for 60 seconds. Using these two approaches, human/rat OX40 binding was assessed (table 16).

The target of assay [1] is T1, human OX40 on cells (human, UniProt P43489 29-277).
T1 sequence (looked up): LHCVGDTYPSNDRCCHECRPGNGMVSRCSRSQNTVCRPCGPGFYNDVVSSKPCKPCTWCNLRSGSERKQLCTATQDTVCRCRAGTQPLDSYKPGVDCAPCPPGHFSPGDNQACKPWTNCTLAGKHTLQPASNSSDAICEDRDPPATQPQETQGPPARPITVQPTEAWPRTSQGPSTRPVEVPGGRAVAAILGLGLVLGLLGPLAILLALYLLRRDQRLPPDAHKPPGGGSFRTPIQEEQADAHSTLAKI
Description: cell-based or functional assay.

Assay [2] has as its target pab1949 scFv fused in C-terminus (Fc fragment after digestion). Nature of the assay: SPR, Fc-scFv fragment captured by anti-human IgG Fc, OX40-CRD-Avi-his injected. The method, then: The antibody/protease mixture was incubated over night at 37° C. […] After each binding event, the surface was regenerated with 10 μl of MgCl2 (3M) buffer. Experimental data were processed using a 1:1 Langmuir model with local Rmax. The dissociation time was about 7 min.
as §1

Assay [3] concerns the target T2, recombinant DR6 molecule (R&D) (UniProt O75509 42-349, limits assumed).
T2 sequence (looked up): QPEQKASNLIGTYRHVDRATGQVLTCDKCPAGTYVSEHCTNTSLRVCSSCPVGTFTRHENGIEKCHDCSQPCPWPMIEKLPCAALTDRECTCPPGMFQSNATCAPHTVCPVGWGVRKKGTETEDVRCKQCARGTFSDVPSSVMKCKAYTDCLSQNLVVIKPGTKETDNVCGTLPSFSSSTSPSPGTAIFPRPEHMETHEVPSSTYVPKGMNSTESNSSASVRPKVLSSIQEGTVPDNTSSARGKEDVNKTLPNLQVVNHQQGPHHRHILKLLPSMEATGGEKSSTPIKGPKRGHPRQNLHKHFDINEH
Nature of the assay: direct ELISA on coated recombinant DR6, detection streptavidin-HRP, absorbance 450 nm [panel DR6]. The method, then:
(§3) FIG. 13. A dose-response of various antibodies was incubated on various receptors, members of Tumor Necrosis Factor Receptor family, then detected with Streptavidin coupled with Horseradish Peroxidase enzyme. […] Each data point is the mean of duplicate values except for control curves that were performed in simplicate.
(§4) The experiment was conducted following the same protocol than previously described. […] These molecules were all coated at 2 μg/ml in PBS overnight at 4° C.
For orientation: An ELISA detects its analyte on a solid surface through an enzyme-linked reagent.

Assay [4] concerns the target T1, human OX40 on cells. Nature of the assay: flow cytometry on JURKAT-NFkB-OX40 cells, detection anti-human Fc PE, geometric mean of fluorescence intensity. (Flow cytometry measures light scatter and fluorescence of single cells or particles in a stream.)
In assay [5] the target is recombinant CD40 molecule (R&D) (UniProt P25942 21-193). Nature of the assay: direct ELISA on coated recombinant CD40, detection streptavidin-HRP, absorbance 450 nm [panel CD40]. The method, then: as §3, §4
recombinant CD40 molecule (R&D), sequence (P25942 21-193 limits assumed): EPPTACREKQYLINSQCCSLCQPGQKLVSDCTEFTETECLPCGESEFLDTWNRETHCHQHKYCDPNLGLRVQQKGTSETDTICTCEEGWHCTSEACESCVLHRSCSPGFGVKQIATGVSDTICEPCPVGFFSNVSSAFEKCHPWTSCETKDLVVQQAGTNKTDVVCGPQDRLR
The target in assay [6] is T3, recombinant DR3 molecule (R&D) (UniProt Q93038 25-199, limits assumed).
T3 sequence (looked up): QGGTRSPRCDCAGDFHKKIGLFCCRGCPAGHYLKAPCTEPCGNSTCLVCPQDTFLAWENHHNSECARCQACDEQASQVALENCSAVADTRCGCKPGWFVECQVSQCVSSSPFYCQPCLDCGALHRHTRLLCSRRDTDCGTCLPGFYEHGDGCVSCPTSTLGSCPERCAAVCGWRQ
Description: direct ELISA on coated recombinant DR3, detection streptavidin-HRP, absorbance 450 nm [panel DR3]. The method, then:
as §3, §4

Assay [7] concerns the target T4, recombinant GITR molecule (R&D) (UniProt Q9Y5U5 26-161).
T4 sequence (looked up): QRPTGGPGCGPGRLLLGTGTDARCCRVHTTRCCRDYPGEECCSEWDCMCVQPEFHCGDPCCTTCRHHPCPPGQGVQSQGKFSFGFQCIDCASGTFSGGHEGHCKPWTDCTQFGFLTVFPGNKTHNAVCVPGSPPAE
Description: direct ELISA on coated recombinant GITR, detection streptavidin-HRP, absorbance 450 nm [panel GITR]. The method, then:
as §3, §4

Another assay has as its target T5, human OX40-Fc (human).
T5 construct: also called recombinant human OX40-Fc; human OX40 (HHHH)
Nature of the assay: ELISA on coated human OX40-Fc, antibody 10 µg/ml. The procedure:
as §2

The target in the next assay is T6, chiOX40R HHRH-Fc (human/rat chimera; human).
T6 construct: also called chiOX40R-Fc HHRH; chiOX40R OX40 HHRH-Fc
T6 sequence (chain, as listed by the source): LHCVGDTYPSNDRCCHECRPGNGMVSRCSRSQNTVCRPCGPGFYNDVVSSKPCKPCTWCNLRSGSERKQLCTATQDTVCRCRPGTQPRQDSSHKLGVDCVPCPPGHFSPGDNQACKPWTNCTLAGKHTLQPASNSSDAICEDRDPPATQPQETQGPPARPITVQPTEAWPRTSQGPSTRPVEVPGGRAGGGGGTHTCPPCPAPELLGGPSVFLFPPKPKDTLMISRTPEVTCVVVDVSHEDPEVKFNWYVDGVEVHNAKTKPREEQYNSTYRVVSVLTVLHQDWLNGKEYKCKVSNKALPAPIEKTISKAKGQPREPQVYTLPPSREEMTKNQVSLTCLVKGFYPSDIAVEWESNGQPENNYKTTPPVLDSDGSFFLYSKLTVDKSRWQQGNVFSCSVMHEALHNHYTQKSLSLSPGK
Nature of the assay: SPR, chimera immobilised (3000 RU), fragment injected at 200 nM. The method, then: A second injection was then performed using HBS-EP buffer for 3 min followed by 5 min of dissociation. Regeneration between the injections was done using glycine pH1.5 buffer for 1 min (FIG. 21 and table 23).

The target in assay [8] is T7, recombinant human OX40-his protein (human, UniProt P43489 29-214).
T7 construct: Secreted via the native signal peptide, which lies within residues 1-214; also called Human OX40R-His; histidine tagged human OX40 receptor extracellular domain
T7 sequence: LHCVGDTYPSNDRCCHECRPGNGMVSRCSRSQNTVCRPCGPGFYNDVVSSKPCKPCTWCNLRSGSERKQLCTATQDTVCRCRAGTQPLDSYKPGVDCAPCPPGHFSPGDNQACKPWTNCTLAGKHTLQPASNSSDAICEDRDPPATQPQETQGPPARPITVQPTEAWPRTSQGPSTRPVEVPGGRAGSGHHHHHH
Description: direct ELISA on coated OX40-his. The method, then: Plates were incubated overnight at 4° C. and were then blocked with PBS 2% BSA (Bovine Serum Albumine, PAA Laboratories, Pasching, Austria) at room temperature (RT) for one hour. […] Absorbance was then read at 450 nm by a microplate reader (Biotek, USA; distributor: WITTEC AG, Littau, Switzerland).

rat OX40-Fc (rat), sequence (chain, as listed by the source limits assumed): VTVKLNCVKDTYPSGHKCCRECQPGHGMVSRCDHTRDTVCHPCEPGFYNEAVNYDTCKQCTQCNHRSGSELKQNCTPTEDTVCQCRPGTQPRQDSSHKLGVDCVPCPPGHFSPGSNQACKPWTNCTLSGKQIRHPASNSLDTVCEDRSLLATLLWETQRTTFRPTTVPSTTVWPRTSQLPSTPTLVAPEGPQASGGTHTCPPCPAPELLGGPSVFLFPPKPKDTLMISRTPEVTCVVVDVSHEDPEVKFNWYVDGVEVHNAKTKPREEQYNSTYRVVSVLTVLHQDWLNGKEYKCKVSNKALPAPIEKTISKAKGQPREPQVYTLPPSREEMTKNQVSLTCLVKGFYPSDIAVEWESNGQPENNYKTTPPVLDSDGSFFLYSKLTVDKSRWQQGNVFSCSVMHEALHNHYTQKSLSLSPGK

B1: pab1949 IgG1 (antibody, V domains shown)
VH: EVQLVESGGGLVQPGGSLKLSCAASGFTFSGSAMHWVRQASGKCLEWVGRIRSKANSYATAYAASVKGRFTISRDDSKNTAYLQMNSLKTEDTAVYYCTSGIYDSSGYDYWGQGTLVTVSS
VL: not shown
Broadly, the Kd is a measure of binding affinity in units of concentration. A high value points to a looser complex. For B1, in the assay with OX40-CRD-Avi-his, the Kd was 304 nM. Besides, the binding result in the assay with rat OX40-Fc is “no binding (tested: 10 µg/ml)”. Besides, in the assay with human OX40 on cells [1], the “% donor responder (>2), SEB assay, IL-2 release” value came out at 80% and the “Mean, normalized IL-2 release, SEB assay” value came out at 4.74.
Take B2: in assay [2], binding was characterised by a dissociation constant (Kd) of 460 nM. This counts as sub-micromolar.

B3: 2H6 IgG1 (antibody)
heavy: not shown
light: DIQLTQSPSSLSASVGDRVTITCRASESVDNYGISFMNWFQQKPGKAPKLLIYAASNQKSGVPSRFSGSGSGTDFTLTISSLQPEDFATYFCQQSKEVPLTFGQGTKVEIKRTVAAPSVFIFPPSDEQLKSGTASVVCLLNNFYPREAKVQWKVDNALQSGNSQESVTEQDSKDSTYSLSSTLTLSKADYEKHKVYACEVTHQGLSSPVTKSFNRGEC
As usually defined, the EC50 (read off the curve) is the midpoint of the concentration-response curve. A low value points to greater potency. Turning to B3, the binding result in assay [3] is recorded as “no binding (tested: 10 µg/ml)”; in assay [5], “no binding (tested: 10 µg/ml)”; with rat OX40-Fc, “no binding (tested: 10 µg/ml)”; in [6], “no binding (tested: 10 µg/ml)”; in [7], “no binding (tested: 10 µg/ml)”; in the assay with human OX40-Fc, “binds”. The “EC50 (read off the curve)” value with human OX40 on cells [4] is approximately 0.2 µg/mL.

B4: Fc-7H11 scFv/2H6 Fab (other)
heavy 1: HTCPPCPAPEAAGGPSVFLFPPKPKDTLMISRTPEVTCVVVDVSHEDPEVQFKWYVDGVEVHNAKTKPREEQYNSTFRVVSVLTVLHQDWLNGKEYKCKVSNKALPAPIEKTISKTKGQPREPAVYTLPPSREEMTKNQVKLVCLVTGFYPSDIAVEWESSGQPENNYYTTPPMLDSDGSFSLVSWLNVDKSRWQQGNIFSCSVMHEALHNRFTQKSLSLSPGGGGGTQVQLVQSGAEVKKPGASVKVSCKASGYTFTRYYMHWVRQAPGQCLEWMGWIYPGEGSTKYAQKFQGRVTMTRDTSISTAYMELSRLRSDDTAVYYCAREYGNYDYWGQGTLVTVSSGGGGSGGGGSGGGGSDIVMTQSPDSLAVSLGERATINCKSSQSLLNSGNQKNYLAWYQQKPGQPPKLLIYGASTRESGVPDRFSGSGSGTDFTLTISSLQAEDVAVYYCQNDHSYPYTFGCGTKLEIL
heavy 2: HTCPPCPAPEAAGGPSVFLFPPKPKDTLMISRTPEVTCVVVDVSHEDPEVKFNWYVDGVEVHNAKTKPREEQYNSTYRVVSVLTVLHQDWLNGKEYKCKVSNKALPAPIEKTISKAKGQPREPEVATFPPSRDELTKNQVTLVCLVTGFYPSDIAVEWESNGQPENNYKTDPPLLESDGSFALSSRLRVDKSRWQQGNVFSCSVMHEALHNHYTQKSLSLSPGGGGGTEVQLVESGGGLVQPGGSLRLSCAVSGYSITSDYAWNWIRQAPGKGLEWMGYISYSGSTAYNPSLKSRITISRDTSKNTFYLQMNSLRAEDTAVYYCARGPYNYLAYWGQGTLVTVSSASTKGPSVFPLAPSSKSTSGGTAALGCLVKDYFPEPVTVSWNSGALTSGVHTFPAVLQSSGLYSLSSVVTVPSSSLGTQTYICNVNHKPSNTKVDKKVEPKSC
light: DIQLTQSPSSLSASVGDRVTITCRASESVDNYGISFMNWFQQKPGKAPKLLIYAASNQKSGVPSRFSGSGSGTDFTLTISSLQPEDFATYFCQQSKEVPLTFGQGTKVEIKRTVAAPSVFIFPPSDEQLKSGTASVVCLLNNFYPREAKVQWKVDNALQSGNSQESVTEQDSKDSTYSLSSTLTLSKADYEKHKVYACEVTHQGLSSPVTKSFNRGEC
notes: N-terminal Fabs removed by digestion; also called Fc-2H6 Fab/7H11 scFv; purified digestion product of Tetra-20
In the case of B4, the response units in the assay with chiOX40R HHRH-Fc worked out at 100 RU.

B5: mouse 2H6 antibody (hybridoma 2H6) (antibody, V domains shown)
VH: DVQLQESGPGLVKPSQSLSLTCTVTGYSITSDYAWNWIRQFPGNKLEWMGYISYSGSTAYNPSLKSRISITRDTSKNQFFLQLNSVTTEDTATYYCARGPYNYLAYWGQGTLVTVSS
VL: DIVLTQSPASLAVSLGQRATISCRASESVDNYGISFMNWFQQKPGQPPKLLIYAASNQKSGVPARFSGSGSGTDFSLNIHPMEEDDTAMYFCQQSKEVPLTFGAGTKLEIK
notes: also called mouse antibody 2H6
As for B5, in [8], the binding result was “binds”.

The values are drawn from US20200347143A1 (GLENMARK PHARMACEUTICALS S A, published 2020).
